Test results from patent US11672846B2, “Soluble bacterial and fungal proteins and methods and uses thereof in inhibiting and dispersing biofilm” (priority 2014, dated 2023).
“Also recorded” adds a separate entry of the source. Like-named read-outs stand apart in the source and are kept apart here.

Legend:
[1] = Reducing sugar assay on dPNAG; assay type: biochemical, S. aureus
Procedure: Isolated dPNAG from S. aureus strain MN8m was solubilized in 6 N HCl at ˜10 mg/mL. 10 N NaOH was used to titrate the re-suspension until neutrality was reached, ˜pH 7-8. In a 50 μL reaction, 1 μM BpsB318-670 was incubated with 1-5 mg/mL of dPNAG in 100 mM HEPES pH 7.0 for 18 hours. The sample was split into two 20 μL aliquots and treated with DTT/3-Methyl-2-benzothiazolinone hydrazone hydrochloride hydrate and heated at 80° C. for 15 minutes. A solution of 0.5% (w/w) iron (III) ammonium sulfate dodecahydrate, 0.5% (w/w) sulfamic acid, and 0.25 N hydrochloric acid was added, mixed, and cooled to room temperature. […] Protein and dPNAG in buffer H were used as background controls.

[2] = test system: PNAG-overproducing E. coli biofilms; assay: Dispersal of pre-formed PNAG-dependent E. coli biofilms; details: for EC50: read-out: EC50 of degradation of pre-formed E. coli biofilm, 60 min, average starting OD595 of 0.5
Procedure: Bacterial cultures expressing Psl were inoculated as stated above and were grown at 37° C. overnight with shaking at 200 rpm. All cultures were diluted in 1:100 in LB and arabinose was added to a final concentration of 0.5% (w/v) to induce Psl biosynthesis. Media containing the Psl-producing cultures were supplemented with 200 μg/mL ampicillin and 100 μg/mL kanamycin. The cultures were incubated statically for 24 h at 26° C. to allow for biofilm formation. After incubation non-adherent cells and media were removed by washing the plate with deionized water three times. The wells were filled with 95 μL of 100 mM sodium HEPES buffer pH 7.0 followed by 5 μL of varying concentrations of each hydrolytic enzyme (2 nM-5 μM). Reactions were allowed to proceed for up to 60 min at 25° C. on a rotating nutator at which time, the reaction was quenched by washing the plates with deionized water. The wells were stained with 200 μL of 0.1% (w/v) crystal violet for 10 min, and washed with water three times. Crystal violet dye from Psi cultures was solubilized in 100 μL of 95% ethanol for 10 min with rotation, after which time the absorbance was measured at 595 nm using a SpectraMax M2 from Molecular Devices (Sunnyvale, Calif.). The amount of biofilm is proportional to the absorbance from staining with crystal violet (Merritt et al 2005). All reactions were completed in at least triplicate and 100 mM sodium HEPES buffer pH 7.0 was used as an untreated control. The addition of 2.5 mg/mL kanamycin to culture prior to biofilm formation was used as a positive control as no cell growth occurs.
PNAG-overproducing E. coli was grown at 37° C. overnight in LB broth supplement with 200 ug/mL ampicillin and 100 ug/mL kanamycin with shaking at 200 rpm. An E. coli μgaABCD knockout strain was used as a non-biofilm forming control for background straining.

[3] = purified protein
[4] = test system: PNAG-overproducing E. coli; assay: Inhibition of PNAG-dependent E. coli biofilm formation (crystal violet); details: read-out: EC50 of E. coli biofilm formation prevention, static 24 h at 26° C.
Procedure: In brief, PNAG-overproducing E. coli or S. carnosus was grown at 37° C. overnight in LB broth supplement with 200 μg/mL ampicillin and 100 μg/mL kanamycin, and 10 μg/mL tetracycline, respectively, with shaking at 200 rpm. Fresh cultures with antibiotic were prepared from the overnight culture using a 1:100 dilution, using LB broth for E. coli, and tryptic soy broth for S. carnosus. 95 μL of diluted culture was added to a sterile 96-well polystyrene round bottom microtiter plate and varying concentrations of protein (2 nM-5 μM) were added in 5 μL aliquots to give a final volume of 100 μL. The cultures were incubated statically for 24 h at 26° C. for E. coli, and 37° C. for S. carnosus, to allow for biofilm formation. To eliminate edge-effects, ˜200 μL of sterile water was placed in all outside wells and the plate was sealed with parafilm. After incubation non-adherent cells and media were removed by washing the plate with deionized water three times. The wells were stained with 150 μL of 0.1% (w/v) crystal violet for 10 min, and washed with water three times. The remaining dye was solubilized with 100 μL of 33% (v/v) acetic acid for 10 min with rotation, after which time the absorbance was measured at 595 nm using a SpectraMax M2 from Molecular Devices (Sunnyvale, Calif.). […] All reactions were completed in at least triplicates and buffer G was used as an untreated control. Either an E. coli pgaABCD knockout strain (DPGA) or S. carnosus treated with gentamycin, was used as a control for background straining.

[5] = test system: P. aeruginosa PAO1 pBADpsl; assay: Inhibition of Psl biofilm formation in static culture (crystal violet); assay type: cell-based, Pseudomonas aeruginosa
[6] = test system: Psl biofilms of P. aeruginosa PAO1 pBADpsl; assay: Dispersal of pre-formed Psl biofilms (crystal violet); assay type: cell-based, Pseudomonas aeruginosa
[7] = test system: P. aeruginosa PAO1 ΔwspFΔpslpBADpel; assay: Inhibition of Pel biofilm formation in static culture (crystal violet); details: specificity control
[8] = test system: A549 pulmonary epithelial cell line injured by A. fumigatus; assay: Chromium release epithelial cell damage assay; details: recombinant Sph3 hydrolases, up to 24 h
Procedure: The immortalized airway epithelial cell line A549 was loaded with chromium-51 by incubating monolayers grown in 24-well tissue culture plates with 3 mCi of ^51Cr at 37° C. in 5% CO2 for 24 h. Excess chromium was removed by washing with Hank's Balanced Salt Solution (HBSS). […] For testing germ tubes, conidia were grown for 7 h in SAB media at 37° C., then the fungus was collected and resuspended in DF12K media before 0.5 μM of hydrolase was added. The germ tubes were incubated with hydrolase for 1 h before being added to the A549 cells. After 16, 20 and 24 h of co-incubation, an aliquot of the medium above the cells was retrieved and replaced with fresh media. The cells were then lysed with 6 N NaOH and the lysate collected. The ^51Cr content of the medium and lysates was then measured in a gamma counter and the extent of epithelial cell damage was calculated as a function of the degree of ^51Cr release. Each strain was tested in triplicate, and all results were corrected for spontaneous chromium release by uninfected epithelial cells.
The methodology for prevention of epithelial cell damage caused by A. fumigatus using Sph352-298 is identical to that previously described in Example 19 for the use PelA47-303.

A. fumigatus GAG biofilm = assay: Inhibition of GAG-dependent A. fumigatus biofilm formation (crystal violet); assay type: cell-based
[9] = test system: pre-formed A. fumigatus GAG biofilms; assay type: cell-based; details: for dispersal of pre-formed GAG biofilm (in words): crystal violet
[10] = Reducing sugar assay on purified GAG; assay type: biochemical, A. fumigatus; details: 10-20 μM protein, 26° C., 24 h
Procedure: Crude GAG was isolated from A. fumigatus biofilms. 200 μL GAG aliquots were centrifuged to pellet the gelatinous fraction. The pellets were washed twice with 350 μL PBS. The wash procedure included vortexing for 5 min, sonicated in a bath for 3 min, and manual mixing by pipetting to reach homogeneity. The final pellet was resuspended in 200 μL of PBS. Samples were treated with 10-20 μM protein and incubated at 26° C. Samples were taken at 24 h. GAG hydrolysis was quantified using a reducing sugar assay as described previously (Anthon & Barrett 2002) with slight modifications. Briefly, 20 μL of enzyme reaction was mixed with 20 μL of 0.5 M NaOH and 20 μL of MBTH/DTT solution (1.5 mg/L 3-methyl-2-benzothiazolinone hydrazine (MBTH) and 0.5 mg/L DTT). The samples were incubated at 80° C. for 15 min before the addition of 40 μL of acidic iron reagent (0.5% (FeNH4(SO4)2).12 H2O, 0.5% sulfamic acid, and 0.25 N HCl). Samples were diluted two-fold in water, before the absorbance was quantified at 620 nm.

B1: PgaB310-672: PgaB C-terminal hydrolase domain residues 310-672, SEQ ID NO: 17 (protein, listed as Escherichia coli)
chain: EKSPQRIMHIDLDYVYDENLQQMDRNIDVLIQRVKDMQISTVYLQAFADPDGDGLVKEVWFPNRLLPMKADIFSRVAWQLRTRSGVNIYAWMPVLSWDLDPTLTRVKYLPTGEKKAQIHPEQYHRLSPFDDRVRAQVGMLYEDLAGHAAFDGILFHDDALLSDYEDASAPAITAYQQAGFSGSLSEIRQNPEQFKQWARFKSRALTDFTLELSARVKAIRGPHIKTARNIFALPVIQPESEAWFAQNYADFLKSYDWTAIMAMPYLEGVAEKSADQWLIQLTNQIKNIPQAKDKSILELQAQNWQKNGQHQAISSQQLAHWMSLLQLNGVKNYGYYPDNFLHNQPEIDLIRPEFSTAWYPKND
dPNAG hydrolysis (in words) [1]: hydrolyze dPNAG | EC50 [2]: 200 nM | concentration to which the protein could be concentrated [3]: 8000 to 10000 µg/mL | EC50 [4]: ~230 nM

B2: PslG31-442: soluble PslG glycosyl hydrolase construct, residues 31-442, P. aeruginosa PAO1, SEQ ID NO: 11 (protein, listed as Pseudomonas aeruginosa)
chain: EIQVLKAPRAVVWKDFLGVNAQFLWFSPERYNKQIDRLQDLGLEWVRLDLHWDRLETAEDQYQLASLDQLVKDLEARQLKSVFYLVGSARFITTAPFYSPFQDQYPPRDPEVFARRMAMLSQRYPSVAAWQVWNEPNLIGFWRPKADPEGYAKLLQASTIALRMVDPEKPVVSAGMAFFSEMPDGRTMFDALGHLGVESLGTIATYHPYTQLPEGNYPWNLDFVSHANQINRALRNAGVPAIWSTEWGWSAYKGPKELQDIIGVEGQADYVLRRLALMSALDYDRIFLFTLSDLDQRASVRDRDYGLLDLDANPKPVYLALQRFLKVTGPKLRPADPPVTEDLPDGSFSIGWTREDGRNVWLFWSARGGNVRLPKLKEATLHDPLSGKVTPLSGSDGLEVPVKSSLQMLVWE
effect on PAO1 growth ([5]; 10 μM enzyme): did not prevent PAO1 growth | EC50 ([5]; PAO1 pBADpsl, static 24 h at 26° C., crystal violet): 4.1 ± 1.1 nM | time to disperse pre-formed Psl biofilm ([6]; 58 nM enzyme): 30 min | time to disperse / completely abolish pre-formed Psl biofilm ([6]; 86 nM enzyme): 35 min | effect on pre-formed Psl biofilm ([6]; 86 nM enzyme, after 20 min): significant reduction of the biofilm | inhibition of Pel biofilm formation (in words) [7]: did not inhibit Pel biofilm formation; also recorded: unable at preventing biofilm formation | dispersal of PNAG-dependent biofilms (in words) [2]: had no affect | concentration to which the protein could be concentrated [3]: 8000 to 10000 µg/mL

B3: Sph3AN(43-299): Sph3 ortholog residues 43-299, Aspergillus nidulans FGSC A4, SEQ ID NO: 23 (protein)
chain: RRKNNNMGPKAKVFVPLYVYPAPGAWDPLVNVITAHPDVNFTVVVNPGSGPGPNPLPDRNYTQEIPRLTAHDNVRVLGYVATTYAKRNISSVRNDIETYAAWPTISANPKLAVRGIFFDETPQQYNASDLAYLEELTSVVKNTPGLGPDHFVFHNPGVVPDPRYLSTADSTVVFEATYDTFQDRDGARLFETIPNSNRSQLCAVVHSVPDSVEGSELRKFVKQARRVADEIFVTHLSTNYYASFGDKWDDFVRLMAQ
modifications: Aspergillus nidulans
epithelial cell damage by A. fumigatus, chromium release [8]: completely protected epithelial cells from damage by A. fumigatus for 24 h | epithelial cell damage by A. fumigatus, chromium release ([8]; listed as Sph3 from A. nidulans): reduced fungal damage to epithelial cells | inhibition of A. fumigatus biofilm formation by recombinant Sph3 (in words) (A. fumigatus GAG biofilm): inhibit the formation of A. fumigatus biofilms in a dose dependent manner

B4: PgaB22-672: PgaB residues 22-672, E. coli K-12 MG1655, SEQ ID NO: 16 (protein, listed as Escherichia coli)
chain: ISQSRTSFIPPQDRESLLAEQPWPHNGFVAISWHNVEDEAADQRFMSVRTSALREQFAWLRENGYQPVSIAQIREAHRGGKPLPEKAVVLTFDDGYQSFYTRVFPILQAFQWPAVWAPVGSWVDTPADKQVKFGDELVDREYFATWQQVREVARSRLVELASHTWNSHYGIQANATGSLLPVYVNRAYFTDHARYETAAEYRERIRLDAVKMTEYLRTKVEVNPHVFVWPYGEANGIAIEELKKLGYDMFFTLESGLANASQLDSIPRVLIANNPSLKEFAQQIITVQEKSPQRIMHIDLDYVYDENLQQMDRNIDVLIQRVKDMQISTVYLQAFADPDGDGLVKEVWFPNRLLPMKADIFSRVAWQLRTRSGVNIYAWMPVLSWDLDPTLTRVKYLPTGEKKAQIHPEQYHRLSPFDDRVRAQVGMLYEDLAGHAAFDGILFHDDALLSDYEDASAPAITAYQQAGFSGSLSEIRQNPEQFKQWARFKSRALTDFTLELSARVKAIRGPHIKTARNIFALPVIQPESEAWFAQNYADFLKSYDWTAIMAMPYLEGVAEKSADQWLIQLTNQIKNIPQAKDKSILELQAQNWQKNGQHQAISSQQLAHWMSLLQLNGVKNYGYYPDNFLHNQPEIDLIRPEFSTAWYPKND
dPNAG hydrolysis (in words) [1]: hydrolyze dPNAG | EC50 [2]: > 1000 nM | EC50 [4]: ~90 nM

B5: GmetPelA23-277: PelA ortholog, residues 23-277, from Geobacter metallireducens, SEQ ID NO: 14 (protein, listed as Geobacter metallireducens)
chain: PPLSVALYYGKQPPVNDLHAFDIVVIDPDSGLTPSEYGSGRSELFAYVSVGEADTARSYTKQMPDRWIIGKNPVWKSKIVDVSSEEWKQFFLDDVVEPLWQAGYRGFFLDTLDSYLIAAPTEAHPRMEAGLVSVVRAIRQRHPEARLILNRGFEIFDRVKDLVYAVAAESLFQNFNTVSGKYGAVDDKDRSWLTSRLNVIRETGVPVIAIDYVDPGNRPLMRETADKIRSLGFTPWVTDKDLAGLGIGSVEVMPRTVLGLYDGGEGAG
dispersal of pre-formed GAG biofilm (in words) [9]: less efficacious | dispersal of pre-formed GAG biofilm (in words) ([9]; listed as GmPelA23-277): less effective at eliminating GAG biofilms

B6: BpsB27-701: full-length BpsB residues 27-701, B. bronchiseptica RB50, SEQ ID NO: 18 (protein, listed as Bordetella bronchiseptica)
chain: YKVDMLPPPDPDDGLTFRVLCMHDVRDNLRASFADMPDQFAIETRTLTDLFEWIRVKGFNPISMQQIIDSRAGVRPLPPRPILLTFDDGYASTYTKVFPLLKKFNYPAVVAVVTSWTDAPAGTKIRLSPKIEVPHDFFMTWAQLREMAQSGLVELASHSHNLHRGVLANPQGNEQPAASSRQYLPASGRYENDAEYRARVRQDLKTSADLIREHTGVTIRSIVWPYGAHNRDTDQVAAEVGLNIGLTLQPGPNTPDVALTQIRRSLVDYEVNVATVARAMREPVSYHGQVRPIERIVQVDLDYIYDPDPEQQNRNLGQLIDRMKDLAPSAVYLQAFADPKGDGDITEVYFPNRHLPMRADLFNRVAWQLKTRAGVMVYAWLPVLTFSVPPGNPAYGKVVQSTTRKPGERGLGSPTRLSPFHPDAHRVISEIYEDLAKAAHFDGLLFHDDAVLDDTEDSSPEALATYQGWGLPPDIAAIRADPKLAQQWSKGKIRYLIDFTMHLRHIVSGYQNDRDMVVARNLYAQPVLDPVSEAWYGQSLPEFLKSYDFVALMAMPNMEGAARPEQWMRQLVAAVARQKGLDRTIFELQARDWRVGKPIDTEILRRQMVQLRSLGAINYGYYPDDFIANHPDAEALRDVMSLKSTLEKRRLTKAQELSRQTTLYGSASQAEPTQR
dPNAG hydrolysis (in words) [1]: hydrolyze dPNAG | EC50 [2]: ~170 nM | EC50 [4]: ~40 nM

B7: Sph352-298: soluble Sph3 residues 52-298, Aspergillus fumigatus Af293, SEQ ID NO: 20 (protein, listed as Aspergillus fumigatus)
chain: SKVFVPLYVYPAPGAWTPLEDVISKHPDVNFTVVINPGSGPGPNALPDGNYTREIPKLASYENVRLLGYVATTYAKRNISLVRRDIETYAAWPTNSSNPALAVRGIFFDETPQQYDEDALAYLQELTDVVKNTPGLGPDHYVVHNPGAIPDSRYLSTADSTVVFEATYDTFQERHGAKLFEAIPDSNRSQLCAVIHSVPESVEGSALRSLVKQVRKVADEIFITHLDTDYYASFGRQWPEFVDLMGK
epithelial cell damage by A. fumigatus, chromium release [8]: reduced fungal damage to epithelial cells | activity against preformed biofilms of multiple A. fumigatus strains / clinical isolates [9]: dose-dependent activity; also recorded: active against multiple strains of A. fumigatus | concentration sufficient at preventing GAG biofilm formation ([9]; FIG. 36, crystal violet): 280 nM | dispersal of pre-formed GAG biofilm (in words) [9]: elimination of the GAG biofilms; also recorded: capable of disrupting GAG-dependent biofilms | inhibition of A. fumigatus biofilm formation by recombinant Sph3 (in words) (A. fumigatus GAG biofilm): inhibit the formation of A. fumigatus biofilms in a dose dependent manner | GAG hydrolysis, reducing ends (in words) [10]: number of reducing ends in solution increased | concentration to which the protein could be concentrated [3]: 8000 to 10000 µg/mL
